From the supplement of paper PMC10065799, “High-throughput profiling of sequence recognition by tyrosine kinases and SH2 domains using bacterial peptide display” (eLife, 2023)

What was measured:
[1] = molecular target: FGFR3 (UniProt P22607); assay: phosphorylation enrichment, bacterial display (enrichment ratio); higher = better substrate or ligand; peptides without Tyr show the background
[2] = molecular target: EPHB2 (UniProt P29323); assay: as above
[3] = molecular target: Hck (UniProt P08631); assay: as above
[4] = molecular target: EPHB1 (UniProt P54762); assay: as above
[5] = system: Fer (mouse); assay: as above
[6] = system: c-Abl (mouse); assay: as above
[7] = molecular target: FGFR1 (UniProt P11362); assay: as above
[8] = system: AncSZ; assay: as above
[9] = molecular target: Fyn (UniProt P06241); assay: as above
[10] = molecular target: MERTK (UniProt Q12866); assay: as above
[11] = molecular target: Jak2 (UniProt O60674); assay: as above
[12] = system: c-Src; assay: as above
[13] = molecular target: Fes (UniProt P07332); assay: as above
[14] = molecular target: Grb2 SH2 (UniProt P62993); assay: SH2 binding enrichment of the phosphorylated peptide, bacterial display (enrichment ratio); higher = better substrate or ligand; peptides without Tyr show the background
[15] = molecular target: SHP2-C SH2; assay: as above
[16] = molecular target: c-Src SH2; assay: as above
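For SH2 binding enrichment of the phosphorylated peptide, bacterial display in this document: peptide library displayed on the E. coli surface as eCPX fusions, selected cells deep-sequenced, score is each peptide's frequency after selection divided by its frequency in the input.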
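For phosphorylation enrichment, bacterial display in this document: 11-residue human phosphosite peptides and single-mutation variants displayed on the E. coli surface, counted by deep sequencing, each peptide's frequency after selection divided by its frequency in the unselected input library; frequency after pTyr selection over input frequency; kinase dosed for 20-30% of maximal phosphorylation in three min.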

Chain of EPHB1 (P54762 whole entry, looked up): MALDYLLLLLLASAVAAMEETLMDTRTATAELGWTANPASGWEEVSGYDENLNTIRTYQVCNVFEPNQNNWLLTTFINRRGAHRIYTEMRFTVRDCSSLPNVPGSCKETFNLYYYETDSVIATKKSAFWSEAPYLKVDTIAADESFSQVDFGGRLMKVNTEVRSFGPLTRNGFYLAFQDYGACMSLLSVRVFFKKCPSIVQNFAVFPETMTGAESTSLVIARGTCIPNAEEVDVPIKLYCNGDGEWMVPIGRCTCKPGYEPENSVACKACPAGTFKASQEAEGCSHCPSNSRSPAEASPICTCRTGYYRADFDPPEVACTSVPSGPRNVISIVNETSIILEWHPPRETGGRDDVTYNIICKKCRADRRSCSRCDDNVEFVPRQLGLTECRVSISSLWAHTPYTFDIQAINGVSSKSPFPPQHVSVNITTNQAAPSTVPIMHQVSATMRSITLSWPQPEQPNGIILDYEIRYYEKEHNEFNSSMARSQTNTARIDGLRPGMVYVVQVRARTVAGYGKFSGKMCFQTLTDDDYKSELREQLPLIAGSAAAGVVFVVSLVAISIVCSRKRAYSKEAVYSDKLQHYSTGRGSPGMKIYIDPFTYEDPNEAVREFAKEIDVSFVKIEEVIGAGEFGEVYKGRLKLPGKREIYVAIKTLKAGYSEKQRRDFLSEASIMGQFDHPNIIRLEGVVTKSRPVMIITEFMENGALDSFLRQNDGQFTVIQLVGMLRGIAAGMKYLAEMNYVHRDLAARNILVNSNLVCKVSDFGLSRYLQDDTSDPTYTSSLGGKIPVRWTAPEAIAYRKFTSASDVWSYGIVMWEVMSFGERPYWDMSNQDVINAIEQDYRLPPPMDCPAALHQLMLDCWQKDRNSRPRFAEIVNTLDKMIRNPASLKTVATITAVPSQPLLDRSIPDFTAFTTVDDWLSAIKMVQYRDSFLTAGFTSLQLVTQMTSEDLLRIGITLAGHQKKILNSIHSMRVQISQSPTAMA
Chain of Hck (P08631 whole entry, looked up): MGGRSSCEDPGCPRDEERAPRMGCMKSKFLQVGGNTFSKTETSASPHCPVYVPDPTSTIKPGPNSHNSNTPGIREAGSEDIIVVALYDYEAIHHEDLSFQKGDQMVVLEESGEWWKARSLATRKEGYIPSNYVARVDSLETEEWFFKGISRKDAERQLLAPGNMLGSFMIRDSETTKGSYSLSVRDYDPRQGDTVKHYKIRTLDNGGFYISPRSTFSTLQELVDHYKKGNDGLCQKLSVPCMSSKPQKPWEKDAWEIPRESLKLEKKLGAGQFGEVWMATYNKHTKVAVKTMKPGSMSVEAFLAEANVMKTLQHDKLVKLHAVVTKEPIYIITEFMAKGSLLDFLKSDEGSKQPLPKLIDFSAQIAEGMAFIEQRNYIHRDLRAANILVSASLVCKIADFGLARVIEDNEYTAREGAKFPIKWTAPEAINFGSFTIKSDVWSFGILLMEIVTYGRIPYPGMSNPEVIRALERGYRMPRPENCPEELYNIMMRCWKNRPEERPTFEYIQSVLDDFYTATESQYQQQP
Chain of Grb2 SH2 (P62993 whole entry, looked up): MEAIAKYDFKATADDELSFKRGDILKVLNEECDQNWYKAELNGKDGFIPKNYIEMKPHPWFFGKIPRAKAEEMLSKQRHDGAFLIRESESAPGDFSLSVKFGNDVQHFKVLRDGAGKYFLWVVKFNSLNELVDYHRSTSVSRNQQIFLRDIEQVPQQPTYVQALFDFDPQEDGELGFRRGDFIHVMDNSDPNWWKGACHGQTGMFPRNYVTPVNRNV
Chain of FGFR3 (P22607 whole entry, looked up): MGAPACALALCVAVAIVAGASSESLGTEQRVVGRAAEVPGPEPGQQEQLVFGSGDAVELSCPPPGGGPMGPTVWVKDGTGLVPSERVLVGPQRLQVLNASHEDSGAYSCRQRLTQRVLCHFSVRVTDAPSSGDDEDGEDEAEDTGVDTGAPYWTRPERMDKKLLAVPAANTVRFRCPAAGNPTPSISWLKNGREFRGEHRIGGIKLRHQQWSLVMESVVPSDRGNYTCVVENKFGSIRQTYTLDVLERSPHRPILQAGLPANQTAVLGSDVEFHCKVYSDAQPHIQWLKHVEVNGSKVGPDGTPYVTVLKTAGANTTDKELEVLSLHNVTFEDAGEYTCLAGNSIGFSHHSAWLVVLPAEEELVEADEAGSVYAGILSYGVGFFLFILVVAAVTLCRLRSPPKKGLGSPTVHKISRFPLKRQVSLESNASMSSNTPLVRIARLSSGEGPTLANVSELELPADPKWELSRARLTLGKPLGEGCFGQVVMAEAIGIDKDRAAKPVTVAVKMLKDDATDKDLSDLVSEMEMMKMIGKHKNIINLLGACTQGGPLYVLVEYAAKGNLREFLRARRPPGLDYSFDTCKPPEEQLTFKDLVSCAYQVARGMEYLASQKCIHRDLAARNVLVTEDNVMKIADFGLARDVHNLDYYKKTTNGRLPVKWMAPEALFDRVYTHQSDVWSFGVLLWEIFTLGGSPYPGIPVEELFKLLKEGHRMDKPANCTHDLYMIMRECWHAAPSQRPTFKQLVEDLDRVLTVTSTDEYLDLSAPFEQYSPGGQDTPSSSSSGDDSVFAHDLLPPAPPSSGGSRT
Chain of FGFR1 (P11362 whole entry, looked up): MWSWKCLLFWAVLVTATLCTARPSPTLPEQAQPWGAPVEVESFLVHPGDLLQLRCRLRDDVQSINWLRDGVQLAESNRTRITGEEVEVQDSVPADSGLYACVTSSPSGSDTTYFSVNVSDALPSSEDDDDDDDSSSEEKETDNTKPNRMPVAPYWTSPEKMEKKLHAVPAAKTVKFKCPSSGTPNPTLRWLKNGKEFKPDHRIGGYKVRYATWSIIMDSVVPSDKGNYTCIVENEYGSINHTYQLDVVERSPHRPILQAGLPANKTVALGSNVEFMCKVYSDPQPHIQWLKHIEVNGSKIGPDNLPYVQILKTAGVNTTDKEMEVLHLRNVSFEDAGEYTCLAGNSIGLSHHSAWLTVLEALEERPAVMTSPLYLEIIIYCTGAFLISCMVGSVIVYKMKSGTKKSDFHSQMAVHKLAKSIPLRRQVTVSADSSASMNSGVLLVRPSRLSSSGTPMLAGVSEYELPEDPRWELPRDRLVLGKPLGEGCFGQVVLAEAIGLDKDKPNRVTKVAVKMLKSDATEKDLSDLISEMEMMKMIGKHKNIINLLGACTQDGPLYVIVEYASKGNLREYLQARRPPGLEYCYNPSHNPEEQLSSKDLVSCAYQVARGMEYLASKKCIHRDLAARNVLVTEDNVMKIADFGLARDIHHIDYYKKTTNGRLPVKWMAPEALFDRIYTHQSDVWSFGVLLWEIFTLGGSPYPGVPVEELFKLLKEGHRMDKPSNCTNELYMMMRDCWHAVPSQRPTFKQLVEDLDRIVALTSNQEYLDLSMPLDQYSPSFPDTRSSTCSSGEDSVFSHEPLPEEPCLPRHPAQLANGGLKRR
Chain of MERTK (Q12866 whole entry, looked up): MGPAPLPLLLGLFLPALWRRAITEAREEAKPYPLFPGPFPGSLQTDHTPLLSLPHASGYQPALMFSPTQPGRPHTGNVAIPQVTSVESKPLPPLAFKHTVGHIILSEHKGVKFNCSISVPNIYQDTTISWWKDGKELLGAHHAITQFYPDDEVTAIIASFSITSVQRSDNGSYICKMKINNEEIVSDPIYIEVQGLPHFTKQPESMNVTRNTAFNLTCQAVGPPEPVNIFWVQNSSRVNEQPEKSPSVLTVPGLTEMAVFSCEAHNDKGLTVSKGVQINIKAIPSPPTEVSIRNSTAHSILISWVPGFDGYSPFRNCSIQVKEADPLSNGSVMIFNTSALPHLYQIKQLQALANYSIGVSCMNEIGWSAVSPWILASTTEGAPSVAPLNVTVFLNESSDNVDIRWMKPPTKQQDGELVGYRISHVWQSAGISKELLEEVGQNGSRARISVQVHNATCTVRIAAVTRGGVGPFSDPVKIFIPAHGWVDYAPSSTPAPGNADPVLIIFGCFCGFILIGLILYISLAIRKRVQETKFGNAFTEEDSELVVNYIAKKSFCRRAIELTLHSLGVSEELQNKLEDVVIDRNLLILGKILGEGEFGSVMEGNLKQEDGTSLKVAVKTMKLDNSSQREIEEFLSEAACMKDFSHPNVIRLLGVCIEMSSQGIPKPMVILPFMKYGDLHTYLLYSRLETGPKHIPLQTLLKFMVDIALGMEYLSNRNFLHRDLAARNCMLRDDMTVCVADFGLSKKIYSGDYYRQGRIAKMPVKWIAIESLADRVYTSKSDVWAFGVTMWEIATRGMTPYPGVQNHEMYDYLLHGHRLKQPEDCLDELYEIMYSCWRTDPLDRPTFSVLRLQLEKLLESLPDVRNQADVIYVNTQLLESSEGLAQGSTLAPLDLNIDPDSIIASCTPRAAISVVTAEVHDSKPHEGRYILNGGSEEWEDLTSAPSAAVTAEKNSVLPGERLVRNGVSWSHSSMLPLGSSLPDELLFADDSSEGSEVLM
Chain of Fyn (P06241 whole entry, looked up): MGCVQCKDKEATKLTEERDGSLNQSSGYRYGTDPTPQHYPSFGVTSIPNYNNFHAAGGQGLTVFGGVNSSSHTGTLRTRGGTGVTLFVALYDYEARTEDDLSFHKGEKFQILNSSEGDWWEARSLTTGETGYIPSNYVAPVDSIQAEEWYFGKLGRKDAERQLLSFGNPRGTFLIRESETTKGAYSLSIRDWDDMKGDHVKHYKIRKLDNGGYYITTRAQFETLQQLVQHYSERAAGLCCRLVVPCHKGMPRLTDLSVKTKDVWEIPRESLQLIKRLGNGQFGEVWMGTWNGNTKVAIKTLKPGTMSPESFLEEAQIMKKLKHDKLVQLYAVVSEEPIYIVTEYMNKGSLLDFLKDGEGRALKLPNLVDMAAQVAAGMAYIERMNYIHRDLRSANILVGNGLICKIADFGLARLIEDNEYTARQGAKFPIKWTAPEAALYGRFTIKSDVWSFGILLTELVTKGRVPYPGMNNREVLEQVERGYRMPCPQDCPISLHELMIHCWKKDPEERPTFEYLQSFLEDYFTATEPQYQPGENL

Sequence	phosphorylation enrichment [1]	phosphorylation enrichment [2]	phosphorylation enrichment [3]	phosphorylation enrichment [4]	phosphorylation enrichment [5]	phosphorylation enrichment [6]	phosphorylation enrichment [7]	phosphorylation enrichment [8]	phosphorylation enrichment [9]	phosphorylation enrichment [10]	phosphorylation enrichment [11]	phosphorylation enrichment [12]	phosphorylation enrichment [13]	SH2 binding enrichment [14]	SH2 binding enrichment [15]	SH2 binding enrichment [16]
IFLGAYDRFLP [SLC22A5_Y486_V481I_YF]	0.608	1.41	3.39	0.84	1.1	0.932	0.427	1.06	2.45	3.84	0.896	3.69	1	0.941	1.22	0.996
IGEGTYRQVYK [CDK13_Y716_G717R]	0.391	0.465	0.411	0.289	0.449	0.492	0.42	0.492	0.368	0.319	0.655	0.521	0.546	0.874	0.89	0.589
IGRWVYPLTPE [EIF2B5_Y319_R315G]	0.646	0.58	0.509	0.563	0.461	0.717	0.564	1.33	0.49	0.551	0.874	0.502	1.02	0.962	0.878	0.62
IIEDPYYGNDS [ACP1_Y132]	0.869	0.623	0.918	0.561	0.632	0.849	0.851	1.46	0.958	0.522	1.33	2.73	1.22	0.88	0.492	0.837
IINENYDFLKV [NUP98_Y1664_G1669V_YF]	0.779	0.92	2.17	0.794	2.45	0.668	0.862	1.05	0.512	0.838	0.97	0.655	1.01	0.588	0.958	0.588
IIRRLYLKWHP [SACS_Y4333]	0.596	0.543	0.497	0.508	0.453	0.721	0.474	1.04	0.535	0.612	0.819	0.571	0.904	0.768	0.568	0.34
ILGRYYERGSI [PAX5_Y73_T75R]	0.552	0.531	0.495	0.493	0.474	0.519	0.466	0.449	0.498	0.408	0.563	0.401	0.726	0.889	0.671	0.84
ILGRYYETSSI [PAX2_Y73_G76S]	0.802	0.476	0.524	0.527	0.629	0.55	0.86	0.724	0.547	0.594	0.632	0.466	0.705	0.782	1.02	2.39
ILKPDYQPLAI [HYDIN_Y1072]	0.533	0.403	0.484	0.489	0.379	0.62	0.376	0.613	0.415	0.425	0.556	0.376	0.65	0.814	0.847	0.541
IPGRFYETGSI [PAX2_Y73_L69P_YF]	0.614	0.858	0.517	0.441	0.357	0.552	0.635	0.733	0.492	0.415	0.662	0.549	0.723	0.841	0.803	1.11
IQRSLYDRPAS [PDGFRA_Y762]	0.469	0.479	1.59	0.488	0.988	0.541	0.489	0.699	0.613	0.689	0.577	0.458	0.643	0.83	0.543	1.98
IRDLKYTIENP [SND1_Y178]	0.807	0.522	0.507	0.521	0.541	0.785	0.776	1.21	0.456	0.407	1.19	0.47	1.38	0.748	0.762	0.438
IRKDLYSNNVL [ACTC1_Y296_A297S]	0.422	0.476	0.419	0.497	0.414	0.444	0.425	0.506	0.415	0.518	0.471	0.322	0.553	0.836	0.835	0.611
IRRSSYEDSSL [HNF4A_Y144_T139I]	0.487	0.543	0.53	0.444	0.526	0.824	0.411	0.705	0.481	0.485	0.65	0.591	0.758	0.749	0.588	0.47
ISGGGYRACPA [FGB_Y71_R74C]	0.52	0.404	0.432	0.51	0.495	0.58	0.469	0.915	0.44	0.409	0.61	0.361	0.818	0.958	0.715	0.533
ISHVAYLVLGK [TRRAP_Y892_R893L]	0.75	0.5	0.485	0.805	0.505	0.588	0.535	0.95	0.507	0.53	0.996	0.454	1.07	1.47	3.41	1.1
